According to US20240352098A1 (AstraZeneca / MedImmune, published 2024):
Residue numbers refer to the chain shown, from its start. Names and notes keep the numbering of the source.

T1: ClfA (Staphylococcus aureus)
T1 chain: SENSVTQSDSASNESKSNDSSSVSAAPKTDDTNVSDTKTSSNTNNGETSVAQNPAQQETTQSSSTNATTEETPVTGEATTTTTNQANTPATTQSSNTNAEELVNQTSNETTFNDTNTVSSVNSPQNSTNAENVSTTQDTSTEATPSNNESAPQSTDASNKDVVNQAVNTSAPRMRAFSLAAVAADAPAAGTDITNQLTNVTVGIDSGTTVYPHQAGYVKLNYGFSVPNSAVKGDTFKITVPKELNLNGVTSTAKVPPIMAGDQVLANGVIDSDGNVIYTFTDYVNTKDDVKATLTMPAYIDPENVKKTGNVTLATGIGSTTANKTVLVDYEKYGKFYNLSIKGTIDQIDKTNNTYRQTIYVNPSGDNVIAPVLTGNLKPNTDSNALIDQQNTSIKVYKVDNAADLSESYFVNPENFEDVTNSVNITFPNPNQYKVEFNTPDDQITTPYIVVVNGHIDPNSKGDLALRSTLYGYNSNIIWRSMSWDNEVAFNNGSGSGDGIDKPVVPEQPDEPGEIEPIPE

T2: S. aureus clumping factor A, founder genotype ClfA002 (Staphylococcus aureus, UniProt Q99VJ4 221-559)
T2 sequence: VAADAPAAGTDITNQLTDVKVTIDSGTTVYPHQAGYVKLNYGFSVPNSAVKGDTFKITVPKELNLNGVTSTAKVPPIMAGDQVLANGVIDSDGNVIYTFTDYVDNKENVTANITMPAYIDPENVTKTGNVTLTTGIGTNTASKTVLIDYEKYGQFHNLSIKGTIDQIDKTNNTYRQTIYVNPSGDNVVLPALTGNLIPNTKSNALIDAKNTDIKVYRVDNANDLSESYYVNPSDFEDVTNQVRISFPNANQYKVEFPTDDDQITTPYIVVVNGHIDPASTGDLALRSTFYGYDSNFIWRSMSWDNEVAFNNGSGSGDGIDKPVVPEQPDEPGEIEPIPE

B1: N3F (antibody)
heavy: QVQLQESGPGLVKPSETLSLTCTVSGGSIQNSYWSWIRQPPGKGLEWIGYLYSSGRTNYTPSLKSRVTISVDTSKNQFSLKLSSVTAADTAVYYCARTHLGGFHYGGGFWFDPWGQGTLVTVSSASTKGPSVFPLAPSSKSTSGGTAALGCLVKDYFPEPVTVSWNSGALTSGVHTFPAVLQSSGLYSLSSVVTVPSSSLGTQTYICNVNHKPSNTKVDKRVEPKSCDKTHTCPPCPAPELLGGPSVFLFPPKPKDTLMISRTPEVTCVVVDVSHEDPEVKFNWYVDGVEVHNAKTKPREEQYNSTYRVVSVLTVLHQDWLNGKEYKCKVSNKALPAPIEKTISKAKGQPREPQVYTLPPSREEMTKNQVSLTCLVKGFYPSDIAVEWESNGQPENNYKTTPPVLDSDGSFFLYSKLTVDKSRWQQGNVFSCSVMHEACSFHLCQKSLSLSPGK
light: DIQMTQSPSSLSASVGDRVTITCRASQSITSYLNWYQQKPGKAPKLLIYASSSLQSGVPSRFSGSGSGTDFTLTISSLQPEDFATYYCQESYSTPPTFGQGTKVEIKRTVAAPSVFIFPPSDEQLKSGTASVVCLLNNFYPREAKVQWKVDNALQSGNSQESVTEQDSKDSTYSLSSTLTLSKADYEKHKVYACEVTHQGLSSPVTKSFNRGEC
notes: copies: 2 + 2
B2: SAR114 anti-ClfA monoclonal antibody (antibody)
heavy: not shown
light: B1 light
B3: N3Y (antibody)
heavy chain: B1 heavy with F441Y
light chain: B1 light
B4: SAR114-N3 (antibody)
heavy: B1 heavy with F441W
light: B1 light

Columns and labels:
[1] = target: T1, ClfA; assay: fibrinogen binding inhibition ('Fg IH' / 'fibrinogen assay'); blocked ligand fibrinogen; sample before light exposure; ClfA genotype not stated; printed in both tables
[2] = target: T1, ClfA; assay: fibrinogen binding inhibition ('Fg IH' / 'fibrinogen assay'); blocked ligand fibrinogen; sample after 1 week of light exposure; ClfA genotype not stated; printed in both tables
[3] = target: T1, ClfA; assay: fibrinogen binding inhibition ('Fg IH' / 'fibrinogen assay'); blocked ligand fibrinogen; sample after 2 weeks of light exposure; ClfA genotype not stated; printed in both tables
[4] = target: T2, S. aureus clumping factor A, founder …; assay: Biacore
[5] = target: T3, S. aureus clumping factor A, founder genotype ClfA004 (Staphylococcus aureus); assay: Biacore
T3 construct: range 221-559

[6] = target: T2, S. aureus clumping factor A, founder …
[7] = target: T3, S. aureus clumping factor A, founder …
[8] = target: T2, S. aureus clumping factor A, founder …; assay: inhibition of ClfA binding to fibrinogen
[9] = target: T3, S. aureus clumping factor A, founder …; assay: inhibition of ClfA binding to fibrinogen
[10] = target: T2, S. aureus clumping factor A, founder …; assay: fibrinogen binding inhibition assay (FIG. 1B)
[11] = target: T3, S. aureus clumping factor A, founder …; assay: fibrinogen binding inhibition assay (FIG. 1B)
[12] = target: T2, S. aureus clumping factor A, founder …; assay: Biacore, antibody captured, ClfA as sample
[13] = target: T3, S. aureus clumping factor A, founder …; assay: Biacore, antibody captured, ClfA as sample
[14] = target: T2, S. aureus clumping factor A, founder …; assay: affinity kinetics, method not named (Table 1)
[15] = target: T3, S. aureus clumping factor A, founder …; assay: affinity kinetics, method not named (Table 1)
[16] = target: T2, S. aureus clumping factor A, founder …; assay: ELISA, inhibition of ClfA binding to immobilised fibrinogen
[17] = target: T3, S. aureus clumping factor A, founder …; assay: as above
[18] = target: T2, S. aureus clumping factor A, founder …; assay: fibrinogen binding inhibition assay (ClfA binding to fibrinogen)
[19] = target: T3, S. aureus clumping factor A, founder …; assay: as above
[20] = target: T1, ClfA; assay: fibrinogen binding inhibition ('IC50 (ug/ml) fibrinogen assay'); blocked ligand fibrinogen; sample after 2 weeks of light exposure; ClfA genotype not stated; printed only in the right-hand table

Row | Binder | IC50 [1] | IC50 [2] | IC50 [8] | IC50 [9] | Kd [12] | koff [12] | kon [12] | Kd [13] | koff [13] | kon [13] | further results
1 | B1 | 9.95 µg/mL | 19.9 µg/mL |  |  |  |  |  |  |  |  | IC50 [3]: 27.8 µg/mL
2 | B2 |  |  | 2.91 µg/mL | 1.72 µg/mL | 0.0477 nM | 0.000182 s⁻¹ | 3.82e+06 M⁻¹ s⁻¹ | 0.0209 nM | 6.21e-05 s⁻¹ | 2.97e+06 M⁻¹ s⁻¹ | fold tighter binding (KD) than SAR114-N3 [4]: ~10 fold; fold tighter binding (KD) than SAR114-N3 [5]: ~10 fold; IC50 (read off the curve) [6]: ~10000 nM; IC50 (read off the curve) [7]: ~30000 nM; IC50 [10]: ~20000 nM; IC50 [11]: ~20000 nM; Kd [14]: 0.0448 nM; koff [14]: 9.53e-05 s⁻¹; kon [14]: 2.13e+06 M⁻¹ s⁻¹; Kd [15]: 0.00115 nM; koff [15]: 6.46e-06 s⁻¹; kon [15]: 5.62e+06 M⁻¹ s⁻¹; IC50 [16]: 14.3 nM; IC50 [17]: 8.08 nM; IC50 [18]: 1.16 µg/mL; IC50 [19]: 1.63 µg/mL
3 | B3 | 6.28 µg/mL | 9.2 µg/mL |  |  |  |  |  |  |  |  | IC50 [20]: 12.7 µg/mL
4 | B4 |  |  | 3.11 µg/mL | 2.52 µg/mL | 0.265 nM | 0.00104 s⁻¹ | 3.92e+06 M⁻¹ s⁻¹ | 0.316 nM | 0.000756 s⁻¹ | 2.39e+06 M⁻¹ s⁻¹ | 
